# Measured values: article PMC11783328 (Science immunology, 2024)
# Target: T1, BG505 SOSIP.v4.1-GT1.1 (HIV-1 (isolate BG505), UniProt Q2N0S6)
# T1 construct: copies: 3 + 3
# Assay: SPR; Biacore 3000; His-tagged GT1 and GT1.1 trimers captured in parallel flow cells; IgG injected from 1 uM in two- or four-fold dilutions; association 300 s, dissociation 600 s, 50 uL/min; bivalent model (first- and second-point interaction; kon2 and KD2 converted from RU units)
# Settings: both partners purified
binder,measurement,value
"gl-3BNC60 (antibody, V domains shown, also called 3BNC60 germline; inferred germline precursor of 3BNC60) VH: not shown VL: DIQMTQSPSSLSASVGDRVTITCQASQDISNYLNWYQQKPGKAPKLLIYDASNLETGVPSRFSGSGSGTDFTFTISSLQPEDIATYYCQQYEFIGPGTKVDIK",stoichiometry N,1.1 paratopes per trimer
